Experimental data: US20170296617

T1: peptide25 (ERTYSPSTAVRS)
T1 chain: ERTYSPSTAVRS

T2: Pep25-P2 (ERTYSPS)
T2 chain: ERTYSPS

B1: MBP-ROCK1 (ROCK1 catalytic domain linked to maltose binding protein) (protein)
chain: MSTGDSFETRFEKMDNLLRDPKSEVNSDCLLDGLDALVYDLDFPALRKNKNIDNFLSRYKDTINKIRDLRMKAEDYEVVKVIGRGAFGEVQLVRHKSTRKVYAMKLLSKFEMIKRSDSAFFWEERDIMAFANSPWVVQLFYAFQDDRYLYMVMEYMPGGDLVNLMSNYDVPEKWARFYTAEVVLALDAIHSMGFIHRDVKPDNMLLDKSGHLKLADFGTCMKMNKEGMVRCDTAVGTPDYISPEVLKSQGGDGYYGRECDWWSVGVFLYEMLVGDTPFYADSLVGTYSKIMNHKNSLTFPDDNDISKEAKNLICAFLTDREVRLGRNGVEEIKRHLFFKNDQWAWETLRDTVAPVVPDLSSDIDTSNFDDLEEDKGEEETFPIPKAFVGNQLPFVGFTYYSNRRYLSSANPNDNR
B2: ROCK1 (protein)
chain: MSTGDSFETRFEKMDNLLRDPKSEVNSDCLLDGLDALVYDLDFPALRKNKNIDNFLSRYKDTINKIRDLRMKAEDYEVVKVIGRGAFGEVQLVRHKSTRKVYAMKLLSKFEMIKRSDSAFFWEERDIMAFANSPWVVQLFYAFQDDRYLYMVMEYMPGGDLVNLMSNYDVPEKWARFYTAEVVLALDAIHSMGFIHRDVKPDNMLLDKSGHLKLADFGTCMKMNKEGMVRCDTAVGTPDYISPEVLKSQGGDGYYGRECDWWSVGVFLYEMLVGDTPFYADSLVGTYSKIMNHKNSLTFPDDNDISKEAKNLICAFLTDREVRLGRNGVEEIKRHLFFKNDQWAWETLRDTVAPVVPDLSSDIDTSNFDDLEEDKGEEETFPIPKAFVGNQLPFVGFTYYSNRRYLSSANPNDNRTSSNADKSLQESLQKTIYKLEEQLHNEMQLKDEMEQKCRTSNIKLDKIMKELDEEGNQRRNLESTVSQIEKEKMLLQHRINEYQRKAEQENEKRRNVENEVSTLKDQLEDLKKVSQNSQLANEKLSQLQKQLEEANDL

What was measured:
peptide25 (ERTYSPSTAVRS) = target: T1, peptide25 (ERTYSPSTAVRS)
Pep25-P2 (ERTYSPS) = target: T2, Pep25-P2 (ERTYSPS)

Row | Protein | ROCK autophosphorylation under high ATP levels (1 mM) (peptide25 (ERTYSPSTAVRS)) | [S6] phosphorylation ratio (pS6 peak area over pS6 plus S6), mass spectrometry of the ROCK reaction with substrate S6 (Pep25-P2 (ERTYSPS)) | conversion ratio of phosphorylated S6 substrate (mass spectrometry) (Pep25-P2 (ERTYSPS))
1 | B1 | blocked ROCK autophosphorylation | – | –
2 | B2 | – | ratio falls with the dose: about 31 at 1 uM, about 29 at 10 uM, about 22 at 30 uM, about 18 at 100 uM; no lower plateau, less than half suppressed at 100 uM; the pS6 peak near m/z 3710 shrinks from 1 uM to 100 uM in the four spectra | Pep25-P2 repressed the phosphorylation of substrate S6 by ROCK
